# Assay results published in the RNAGym collection of RNA variant scans (doi:10.7554/elife.80360).
# B1: Hairpin Ribozyme (parent)
# chain: GUCCUCUUUCACGUGCGCGUGAAAGAGAGAAGUGAACCAGAGAAACACACGUUGUGGUAUAUUACCUGGUA
# Variants of: B1
# Assay: self-cleavage, relative activity (ratio to wild type); higher = more cleavage; co-transcriptional
row,Variant,self-cleavage
1,C12G A23U,0.753
2,C12G A23G,0.853
3,C12G A23C,0.511
4,C12A G34A,1.21
5,C12G G21C,0.47
6,A11G G19C,0.784
7,A11U G25C,0.205
8,G13A,0.87
9,A11U G69A,0.402
10,A11U G13U,0.54
11,A11U G13C,0.737
12,A11U C38U,0.47
13,A11U C12G,0.74
14,C12U G42C,0.265
15,A11G U33A,0.0249
16,C12U U52G,0.875
17,C12U U52C,1.1
18,C12U U52A,0.92
19,A11G C37U,0.357
20,C12G U52G,0.718
21,A11U A61U,0.247
22,G13A G54U,0.42
23,G13A G54C,0.346
24,A11G C18G,0.816

row,Variant,self-cleavage
1,C12U U62C,0.27
2,A11G A45C,0.124
3,A11G A45G,0.271
4,G13A U20C,0.902
5,G13A A35G,0.732
6,G13A A35U,0.78
7,A11G U62A,0.154
8,C12U U70G,0.659
9,C12U U70A,0.746
10,C12G G42U,0.343
11,C12U A49C,0.169
12,C12U A49U,0.159
13,A11G A47U,0.131
14,A11G A47G,0.0539
15,G13A C48A,0.144
16,G13A C48U,0.22
17,G13A C48G,0.118
18,C12U G40U,0.191
19,C12G A28G,0.889
20,A11G U55C,0.105
21,C12G G13A,0.851
22,C12G C65G,0.174
23,C12G C65U,0.28
24,A11U A39G,0.342

row,Variant,self-cleavage
1,A11U A44C,0.216
2,C12G G40A,0.266
3,C12A A47C,0.329
4,C12G G56A,0.14
5,C12G G56U,0.124
6,G13A G40U,0.129
7,C12G U60C,1.04
8,A11G G25A,0.43
9,C12A G69A,0.289
10,G13A A47U,0.172
11,C12G A39G,0.29
12,C12A G19A,0.876
13,C12A G19U,0.995
14,C12G G51A,0.965
15,C12G G51C,0.753
16,C12G G51U,0.663
17,C12U C37G,0.27
18,A11U C66G,0.0569
19,A11U A47U,0.266
20,G13A A41U,0.964
21,G13A A41G,0.777
22,A11U G56C,0.087
23,C12A A45C,0.137
24,A11G C46A,0.0804

row,Variant,self-cleavage
1,A11G C46G,0.0993
2,A11G U53C,1.02
3,A11U A59U,0.256
4,A11U A59C,0.137
5,C12U A36U,0.584
6,C12U A36G,1.17
7,G13A A30G,0.104
8,C12A U55C,0.208
9,C12U U55A,0.191
10,A11U A36G,0.7
11,C12A A41G,0.736
12,C12A C48G,0.137
13,C12A C48A,0.162
14,A11U U53G,0.69
15,A11U U53C,0.975
16,A11U A23U,0.728
17,C12G A22C,0.518
18,G13A C37A,0.373
19,A11U G40C,0.178
20,A11U G40A,0.242
21,A11G G69U,0.215
22,A11G G29C,0.177
23,C12U U20G,0.76
24,C12G U70A,0.728

row,Variant,self-cleavage
1,G13A A43U,0.144
2,G13A G17A,0.747
3,G13A G17C,0.507
4,G13A G15U,1.1
5,G13A G15C,0.753
6,A11G G15C,0.859
7,A11G A59G,0.199
8,A11G G17A,1.01
9,C12U U63G,0.162
10,A11U U63A,0.22
11,C12U G13U,0.828
12,C12U G13C,0.791
13,A11G C16U,0.902
14,A11G C16A,0.825
15,G13A U55C,0.214
16,A11G C38A,0.213
17,A11G C38G,0.188
18,A11G C38U,0.432
19,A11U C16U,1.02
20,C12A A43G,0.116
21,C12A A43C,0.257
22,C12A U70G,0.673
23,C12A U70C,0.722
24,A11G U52G,0.681

row,Variant,self-cleavage
1,C12G A59U,0.134
2,C12G C50A,0.306
3,C12U C66G,0.126
4,C12U C66U,0.514
5,A11U G17C,0.566
6,C12U G15U,1.08
7,C12U G15A,0.687
8,C12A C16G,0.671
9,C12A C16U,0.977
10,C12G A45C,0.0684
11,C12G A44G,0.156
12,C12G A44U,0.147
13,A11G A49C,0.124
14,C12G G25C,0.489
15,C12U A35C,0.975
16,C12U A35G,0.938
17,C12U C48U,0.126
18,G13A C50U,0.373
19,G13A C65G,0.238
20,C12U C46U,0.174
21,A11U G42A,0.136
22,C12G G15A,0.881
23,A11U G34U,1.36
24,G13A C46U,0.221

row,Variant,self-cleavage
1,C12A C18A,0.812
2,A11U A71G,0.977
3,C12A G57U,0.172
4,C12A G57A,0.255
5,C12U G57C,0.222
6,C12U A39C,0.407
7,C12U A39U,0.45
8,A11G C65G,0.31
9,C12A A28U,0.34
10,C12U A41G,0.676
11,C12G U58A,0.734
12,G13A A49G,0.5
13,G13A A49U,0.18
14,C12A A35U,0.635
15,G13A G27A,0.462
16,G13A G27C,0.217
17,C12U A61U,0.133
18,C12U A61G,0.255
19,A11U U60A,0.708
20,A11U U60G,0.509
21,A11G U67C,0.214
22,C12A A64U,0.176
23,C12G U20C,1.01
24,C12U G19U,0.954

row,Variant,self-cleavage
1,C12A U63C,0.2
2,C12G C16A,0.84
3,C12G C16G,0.806
4,A11G G51U,0.713
5,A11G G51A,0.93
6,C12U G29A,0.164
7,C12G A47C,0.417
8,A11U A41C,1.01
9,A11U A41U,1
10,A11U U33A,0.0768
11,G13A A23C,0.571
12,C12A G25U,0.559
13,C12A G25A,0.486
14,C12U U67C,0.237
15,C12G U67C,0.233
16,G13A G25U,0.512
17,C12A G40A,0.237
18,C12A U33G,0.175
19,A11U A49U,0.251
20,A11U A49C,0.24
21,C12U G54U,0.58
22,C12U U60C,1.02
23,C12U U60G,0.504
24,A11G G56C,0.128

row,Variant,self-cleavage
1,A11G G56A,0.229
2,C12U G34U,1.18
3,A11U A22U,0.501
4,A11U A22C,0.363
5,C12U A24U,0.802
6,C12A U62C,0.0739
7,A11U U52C,0.891
8,A11U U52A,0.85
9,C12U A47G,0.131
10,C12U A47U,0.194
11,C12G G27A,0.29
12,C12G G27U,0.261
13,C12A A22G,0.692
14,G13A G68A,0.275
15,A11G G40U,0.149
16,C12G G17U,0.627
17,C12A A36C,0.523
18,A11U U58A,0.523
19,A11U U58G,0.65
20,C12A A23C,0.762
21,C12U G68C,0.191
22,G13A G34C,1.33
23,G13A U63C,0.175
24,G13A A24U,0.627

row,Variant,self-cleavage
1,C12G A30U,0.147
2,C12G A30G,0.247
3,C12G A30C,0.0578
4,C12U C16U,0.916
5,A11G A64C,0.114
6,A11G A64G,0.507
7,A11G A64U,0.111
8,A11U A31U,0.0898
9,C12G G32U,0.179
10,C12G G54A,0.543
11,A11U G54C,0.333
12,C12G C38U,0.392
13,A11G G13C,0.567
14,A11G G13U,0.662
15,G13A C38G,0.0904
16,G13A C38A,0.154
17,G13A G19U,0.825
18,G13A G19C,0.804
19,C12U G32A,0.134
20,C12U A22U,0.759
21,C12U A22G,0.748
22,A11G U14A,0.916
23,C12A A24U,0.584
24,G13A A44G,0.125

row,Variant,self-cleavage
1,A11G A61C,0.14
2,G13A A39G,0.279
3,C12G A41G,0.573
4,A11U A24G,0.813
5,C12G G69A,0.284
6,C12G G69U,0.259
7,C12A C65A,0.787
8,C12G A24G,0.778
9,C12G A24C,0.613
10,C12U G27C,0.15
11,A11U G21C,0.549
12,A11G A43U,0.199
13,A11G A43G,0.128
14,G13A A59G,0.104
15,C12U A45U,0.163
16,C12U A45G,0.162
17,A11U A45U,0.255
18,C12A C66U,0.418
19,C12U U53C,0.862
20,C12U A23C,0.93
21,C12G G34C,1.15
22,G13A U60A,0.714
23,G13A U60G,0.374
24,G13A A45G,0.161

row,Variant,self-cleavage
1,C12U A31C,0.204
2,C12A G51U,0.933
3,C12A G51C,0.78
4,C12A C37G,0.259
5,C12A C37A,0.27
6,C12G C37A,0.159
7,G13A C18A,1.02
8,C12U A43U,0.22
9,C12U A43G,0.0708
10,A11U A30G,0.0913
11,A11U G15C,0.85
12,A11U G15A,0.849
13,A11U A28U,0.494
14,C12A U53C,0.939
15,A11G G34U,1.17
16,C12U C38G,0.235
17,C12G G68C,0.144
18,C12G G68A,0.233
19,G13A G56C,0.119
20,C12A U52G,0.757
21,C12U A44G,0.201
22,C12U A44U,0.0952
23,G13A G32A,0.0965
24,G13A G32C,0.136

row,Variant,self-cleavage
1,A11G G27A,0.353
2,A11G G27U,0.248
3,C12U G56U,0.193
4,C12U G56C,0.137
5,G13A A61U,0.136
6,A11U C50G,0.258
7,C12G A49U,0.12
8,G13A A22G,0.676
9,G13A A22C,0.607
10,A11U G27A,0.406
11,A11G C66G,0.173
12,A11U C46G,0.0538
13,A11U C46A,0.16
14,G13A U53G,0.597
15,C12G C46G,0.17
16,C12G C46A,0.191
17,A11U U55A,0.154
18,C12A G54U,0.53
19,C12A G54C,0.389
20,A11U U14G,0.536
21,A11U U14C,0.964
22,C12G G19U,0.997
23,C12G G19A,0.808
24,C12G G19C,1.24

row,Variant,self-cleavage
1,A11G G21C,0.618
2,A11U G32A,0.165
3,G13A A71G,0.912
4,G13A A71C,1.36
5,C12G G57C,0.165
6,A11U G51C,0.706
7,A11G G54C,0.297
8,C12U,0.887
9,C12A,0.805
10,C12G,0.827
11,A11U U62A,0.148
12,G13A C66U,0.419
13,G13A C66A,0.173
14,G13A G57U,0.205
15,G13A U62G,0.106
16,C12A C46G,0.161
17,G13A A64U,0.258
18,G13A A64C,0.178
19,C12U A30C,0.193
20,C12U A30U,0.136
21,C12G U62A,0.176
22,C12G U62C,0.235
